The target in assay [1] is feline FcRn complex (FcRn-α subunit and β-microglobulin) (feline). Nature of the assay: SPR (Biacore), FcRn on SA chip, pH 6. In general terms: In SPR one partner is held on a chip, and binding of the other changes the refractive index at the surface.
For assay [2] the target is unchanged. Nature of the assay: SPR (Biacore), FcRn on SA chip, pH 7.4.

The text below walks through data of patent US20240400708A1.

B1: feline IgG1a mutant ID No. 256: S428M, S434W (antibody, part only; not given: variable domains and light chain, not shown: another chain or arm of the molecule)
constant: ASTTAPSVFPLAPSCGTTSGATVALACLVLGYFPEPVTVSWNSGALTSGVHTFPAVLQASGLYSLSSMVTVPSSRWLSDTFTCNVAHPPSNTKVDKTVRKTDHPPGPKPCDCPKCPPPEMLGGPSIFIFPPKPKDTLSISRTPEVTCLVVDLGPDDSDVQITWFVDNTQVYTAKTSPREEQFNSTYRVVSVLPILHQDWLKGKEFKCKVNSKSLPSPIERTISKAKGQPHEPQVYVLPPAQEELSRNKVSVTCLIKSFHPPDIAVEWEITGQPEPENNYRTTPPQLDSDGTYFVYSKLSVDRSHWQRGNTYTCSVMHEALHWHHTQKSLTQSPGK
Turning to B1, the values for the Kd in assay [1] and in assay [2] were 0.193 nM and 31.6 nM, respectively.

B2: feline IgG1a mutant ID No. 279: S252R, S434Y (antibody, part only; not given: Variable domains, not shown: another chain or arm of the molecule)
constant: ASTTAPSVFPLAPSCGTTSGATVALACLVLGYFPEPVTVSWNSGALTSGVHTFPAVLQASGLYSLSSMVTVPSSRWLSDTFTCNVAHPPSNTKVDKTVRKTDHPPGPKPCDCPKCPPPEMLGGPSIFIFPPKPKDTLRISRTPEVTCLVVDLGPDDSDVQITWFVDNTQVYTAKTSPREEQFNSTYRVVSVLPILHQDWLKGKEFKCKVNSKSLPSPIERTISKAKGQPHEPQVYVLPPAQEELSRNKVSVTCLIKSFHPPDIAVEWEITGQPEPENNYRTTPPQLDSDGTYFVYSKLSVDRSHWQRGNTYTCSVSHEALHYHHTQKSLTQSPGK
Regarding B2, the Kd in assay [1] is 10.8 nM; in assay [2], 12100 nM.

B3: feline IgG1a mutant ID No. 280: S252R, S434Y, Q311W (antibody, part only; not given: Variable domains, not shown: another chain or arm of the molecule)
constant: ASTTAPSVFPLAPSCGTTSGATVALACLVLGYFPEPVTVSWNSGALTSGVHTFPAVLQASGLYSLSSMVTVPSSRWLSDTFTCNVAHPPSNTKVDKTVRKTDHPPGPKPCDCPKCPPPEMLGGPSIFIFPPKPKDTLRISRTPEVTCLVVDLGPDDSDVQITWFVDNTQVYTAKTSPREEQFNSTYRVVSVLPILHWDWLKGKEFKCKVNSKSLPSPIERTISKAKGQPHEPQVYVLPPAQEELSRNKVSVTCLIKSFHPPDIAVEWEITGQPEPENNYRTTPPQLDSDGTYFVYSKLSVDRSHWQRGNTYTCSVSHEALHYHHTQKSLTQSPGK
B3: the Kd turned out to be 2.87 nM in assay [1] and 4400 nM in assay [2].

B4: feline IgG1a mutant ID No. 270: S252F, S434W, Q311W (antibody, part only; not given: variable domains and light chain, not shown: another chain or arm of the molecule)
constant: ASTTAPSVFPLAPSCGTTSGATVALACLVLGYFPEPVTVSWNSGALTSGVHTFPAVLQASGLYSLSSMVTVPSSRWLSDTFTCNVAHPPSNTKVDKTVRKTDHPPGPKPCDCPKCPPPEMLGGPSIFIFPPKPKDTLFISRTPEVTCLVVDLGPDDSDVQITWFVDNTQVYTAKTSPREEQFNSTYRVVSVLPILHWDWLKGKEFKCKVNSKSLPSPIERTISKAKGQPHEPQVYVLPPAQEELSRNKVSVTCLIKSFHPPDIAVEWEITGQPEPENNYRTTPPQLDSDGTYFVYSKLSVDRSHWQRGNTYTCSVSHEALHWHHTQKSLTQSPGK
On to B4, for which the Kd was 3.68 nM in assay [1] and 2640 nM in assay [2].

B5: feline IgG1a mutant ID No. 277: S252R, S434W (antibody, part only; not given: Variable domains, not shown: another chain or arm of the molecule)
constant: ASTTAPSVFPLAPSCGTTSGATVALACLVLGYFPEPVTVSWNSGALTSGVHTFPAVLQASGLYSLSSMVTVPSSRWLSDTFTCNVAHPPSNTKVDKTVRKTDHPPGPKPCDCPKCPPPEMLGGPSIFIFPPKPKDTLRISRTPEVTCLVVDLGPDDSDVQITWFVDNTQVYTAKTSPREEQFNSTYRVVSVLPILHQDWLKGKEFKCKVNSKSLPSPIERTISKAKGQPHEPQVYVLPPAQEELSRNKVSVTCLIKSFHPPDIAVEWEITGQPEPENNYRTTPPQLDSDGTYFVYSKLSVDRSHWQRGNTYTCSVSHEALHWHHTQKSLTQSPGK
For B5, the Kd in assay [1] came out at 7.1 nM; in assay [2] it was 6600 nM.

B6: feline IgG1a mutant ID No. 267: S252F, S434F, Q311W (antibody, part only; not given: Variable domains, not shown: another chain or arm of the molecule)
constant: ASTTAPSVFPLAPSCGTTSGATVALACLVLGYFPEPVTVSWNSGALTSGVHTFPAVLQASGLYSLSSMVTVPSSRWLSDTFTCNVAHPPSNTKVDKTVRKTDHPPGPKPCDCPKCPPPEMLGGPSIFIFPPKPKDTLFISRTPEVTCLVVDLGPDDSDVQITWFVDNTQVYTAKTSPREEQFNSTYRVVSVLPILHWDWLKGKEFKCKVNSKSLPSPIERTISKAKGQPHEPQVYVLPPAQEELSRNKVSVTCLIKSFHPPDIAVEWEITGQPEPENNYRTTPPQLDSDGTYFVYSKLSVDRSHWQRGNTYTCSVSHEALHFHHTQKSLTQSPGK
On to B6, for which the dissociation constant Kd in assay [1] worked out at 4.15 nM; in assay [2] it was 4030 nM.

B7: feline IgG1a mutant ID No. 266: Q311W, L314K, S434Y (antibody, part only; not given: Variable domains, not shown: another chain or arm of the molecule)
constant: ASTTAPSVFPLAPSCGTTSGATVALACLVLGYFPEPVTVSWNSGALTSGVHTFPAVLQASGLYSLSSMVTVPSSRWLSDTFTCNVAHPPSNTKVDKTVRKTDHPPGPKPCDCPKCPPPEMLGGPSIFIFPPKPKDTLSISRTPEVTCLVVDLGPDDSDVQITWFVDNTQVYTAKTSPREEQFNSTYRVVSVLPILHWDWKKGKEFKCKVNSKSLPSPIERTISKAKGQPHEPQVYVLPPAQEELSRNKVSVTCLIKSFHPPDIAVEWEITGQPEPENNYRTTPPQLDSDGTYFVYSKLSVDRSHWQRGNTYTCSVSHEALHYHHTQKSLTQSPGK
As to B7, the Kd in assay [1] amounted to 2.8 nM; in assay [2], 388 nM.

B8: feline IgG1a mutant ID No. 276: S252R, S434R, Q311W (antibody, part only; not given: variable domains and light chain, not shown: another chain or arm of the molecule)
constant: ASTTAPSVFPLAPSCGTTSGATVALACLVLGYFPEPVTVSWNSGALTSGVHTFPAVLQASGLYSLSSMVTVPSSRWLSDTFTCNVAHPPSNTKVDKTVRKTDHPPGPKPCDCPKCPPPEMLGGPSIFIFPPKPKDTLRISRTPEVTCLVVDLGPDDSDVQITWFVDNTQVYTAKTSPREEQFNSTYRVVSVLPILHWDWLKGKEFKCKVNSKSLPSPIERTISKAKGQPHEPQVYVLPPAQEELSRNKVSVTCLIKSFHPPDIAVEWEITGQPEPENNYRTTPPQLDSDGTYFVYSKLSVDRSHWQRGNTYTCSVSHEALHRHHTQKSLTQSPGK
Regarding B8, the dissociation constant (Kd) in assay [1] was 28.7 nM; in assay [2], 14800 nM.

B9: feline IgG1a mutant ID No. 257: S428M, S434Y (antibody, part only; not given: Variable domains, not shown: another chain or arm of the molecule)
constant: ASTTAPSVFPLAPSCGTTSGATVALACLVLGYFPEPVTVSWNSGALTSGVHTFPAVLQASGLYSLSSMVTVPSSRWLSDTFTCNVAHPPSNTKVDKTVRKTDHPPGPKPCDCPKCPPPEMLGGPSIFIFPPKPKDTLSISRTPEVTCLVVDLGPDDSDVQITWFVDNTQVYTAKTSPREEQFNSTYRVVSVLPILHQDWLKGKEFKCKVNSKSLPSPIERTISKAKGQPHEPQVYVLPPAQEELSRNKVSVTCLIKSFHPPDIAVEWEITGQPEPENNYRTTPPQLDSDGTYFVYSKLSVDRSHWQRGNTYTCSVMHEALHYHHTQKSLTQSPGK
B9: the dissociation constant (Kd) was 0.264 nM in assay [1] and 21.9 nM in assay [2].

B10: feline IgG1a mutant ID No. 272: S252R, S434F (antibody, part only; not given: variable domains, not shown: another chain or arm of the molecule)
constant: ASTTAPSVFPLAPSCGTTSGATVALACLVLGYFPEPVTVSWNSGALTSGVHTFPAVLQASGLYSLSSMVTVPSSRWLSDTFTCNVAHPPSNTKVDKTVRKTDHPPGPKPCDCPKCPPPEMLGGPSIFIFPPKPKDTLRISRTPEVTCLVVDLGPDDSDVQITWFVDNTQVYTAKTSPREEQFNSTYRVVSVLPILHQDWLKGKEFKCKVNSKSLPSPIERTISKAKGQPHEPQVYVLPPAQEELSRNKVSVTCLIKSFHPPDIAVEWEITGQPEPENNYRTTPPQLDSDGTYFVYSKLSVDRSHWQRGNTYTCSVSHEALHFHHTQKSLTQSPGK
B10: the equilibrium dissociation constant (Kd) in assay [1] worked out at 7.96 nM; in assay [2], 11900 nM.

B11: feline IgG1a mutant ID No. 268: S252F, S434H, Q311W (antibody, part only; not given: Variable domains, not shown: another chain or arm of the molecule)
constant: ASTTAPSVFPLAPSCGTTSGATVALACLVLGYFPEPVTVSWNSGALTSGVHTFPAVLQASGLYSLSSMVTVPSSRWLSDTFTCNVAHPPSNTKVDKTVRKTDHPPGPKPCDCPKCPPPEMLGGPSIFIFPPKPKDTLFISRTPEVTCLVVDLGPDDSDVQITWFVDNTQVYTAKTSPREEQFNSTYRVVSVLPILHWDWLKGKEFKCKVNSKSLPSPIERTISKAKGQPHEPQVYVLPPAQEELSRNKVSVTCLIKSFHPPDIAVEWEITGQPEPENNYRTTPPQLDSDGTYFVYSKLSVDRSHWQRGNTYTCSVSHEALHHHHTQKSLTQSPGK
On to B11, for which the Kd came to 14.3 nM in assay [1] and 10700 nM in assay [2].

B12: feline IgG1a mutant ID No. 273: S252R, S434F, Q311W (antibody, part only; not given: Variable domains, not shown: another chain or arm of the molecule)
constant: ASTTAPSVFPLAPSCGTTSGATVALACLVLGYFPEPVTVSWNSGALTSGVHTFPAVLQASGLYSLSSMVTVPSSRWLSDTFTCNVAHPPSNTKVDKTVRKTDHPPGPKPCDCPKCPPPEMLGGPSIFIFPPKPKDTLRISRTPEVTCLVVDLGPDDSDVQITWFVDNTQVYTAKTSPREEQFNSTYRVVSVLPILHWDWLKGKEFKCKVNSKSLPSPIERTISKAKGQPHEPQVYVLPPAQEELSRNKVSVTCLIKSFHPPDIAVEWEITGQPEPENNYRTTPPQLDSDGTYFVYSKLSVDRSHWQRGNTYTCSVSHEALHFHHTQKSLTQSPGK
For the molecule B12, the Kd was 4.77 nM in assay [1] and 4760 nM in assay [2].

B13: feline IgG1a mutant ID No. 274: S252R, S434H, Q311W (antibody, part only; not given: Variable domains, not shown: another chain or arm of the molecule)
constant: ASTTAPSVFPLAPSCGTTSGATVALACLVLGYFPEPVTVSWNSGALTSGVHTFPAVLQASGLYSLSSMVTVPSSRWLSDTFTCNVAHPPSNTKVDKTVRKTDHPPGPKPCDCPKCPPPEMLGGPSIFIFPPKPKDTLRISRTPEVTCLVVDLGPDDSDVQITWFVDNTQVYTAKTSPREEQFNSTYRVVSVLPILHWDWLKGKEFKCKVNSKSLPSPIERTISKAKGQPHEPQVYVLPPAQEELSRNKVSVTCLIKSFHPPDIAVEWEITGQPEPENNYRTTPPQLDSDGTYFVYSKLSVDRSHWQRGNTYTCSVSHEALHHHHTQKSLTQSPGK
Regarding B13, the dissociation constant Kd was 5.62 nM in assay [1] and 3850 nM in assay [2].

B14: feline IgG1a mutant ID No. 269: S252F, S434R, Q311W (antibody, part only; not given: Variable domains, not shown: another chain or arm of the molecule)
constant: ASTTAPSVFPLAPSCGTTSGATVALACLVLGYFPEPVTVSWNSGALTSGVHTFPAVLQASGLYSLSSMVTVPSSRWLSDTFTCNVAHPPSNTKVDKTVRKTDHPPGPKPCDCPKCPPPEMLGGPSIFIFPPKPKDTLFISRTPEVTCLVVDLGPDDSDVQITWFVDNTQVYTAKTSPREEQFNSTYRVVSVLPILHWDWLKGKEFKCKVNSKSLPSPIERTISKAKGQPHEPQVYVLPPAQEELSRNKVSVTCLIKSFHPPDIAVEWEITGQPEPENNYRTTPPQLDSDGTYFVYSKLSVDRSHWQRGNTYTCSVSHEALHRHHTQKSLTQSPGK
Regarding B14, the Kd in assay [1] came out at 11.3 nM; in assay [2], 1520 nM.

B15: feline IgG1a mutant ID No. 271: S252F, S434Y, Q311W (antibody, part only; not given: Variable domains, not shown: another chain or arm of the molecule)
constant: ASTTAPSVFPLAPSCGTTSGATVALACLVLGYFPEPVTVSWNSGALTSGVHTFPAVLQASGLYSLSSMVTVPSSRWLSDTFTCNVAHPPSNTKVDKTVRKTDHPPGPKPCDCPKCPPPEMLGGPSIFIFPPKPKDTLFISRTPEVTCLVVDLGPDDSDVQITWFVDNTQVYTAKTSPREEQFNSTYRVVSVLPILHWDWLKGKEFKCKVNSKSLPSPIERTISKAKGQPHEPQVYVLPPAQEELSRNKVSVTCLIKSFHPPDIAVEWEITGQPEPENNYRTTPPQLDSDGTYFVYSKLSVDRSHWQRGNTYTCSVSHEALHYHHTQKSLTQSPGK
Take B15: the results for the Kd in assay [1] and in assay [2] were 0.0969 nM and 6.21 nM, respectively.

The Kd is the free concentration of one partner at which half of the binding sites on the other are occupied at equilibrium, for simple one-to-one binding. The low end stands for a tighter complex, the high end for a looser complex.
